Laboratory results reported in the supplement of paper PMC10126150.
± gives the standard deviation of the averaged measurements.

The sequences below were run on ATP (assay: switch fluorescence ratio, 500 uM ATP over buffer (Cy3 cluster intensity, sum of 5 cycles each) (fold (ratio)); higher = stronger signal-on switching upon ATP binding; sequences stand for … in TCGTCGGCAGCGTCAGATGTGTATAAGAGACAGTTTTTTTTTTTTTTTTTTTTTTTTT…TC). Details: aptamer strand: ATP DNA aptamer (quencher-CACCTGGGGGAGTATTGCGGAGGAAGG + anchor), 100 nM annealed; ATP concentration: 500 uM.
In short: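 Clusters carrying Cy3-labelled switching strands on a modified Illumina MiSeq flow-cell were annealed to 100 nM quencher-labelled ATP aptamer and imaged in selection buffer. They were imaged again after 15 min with 500 uM ATP at 22 °C, over five buffer/ATP cycles with NaOH stripping and re-annealing in between. For each cluster, the fluorescence ratio is the summed Cy3 intensity of the target cycles divided by that of the buffer cycles, averaged per switch-domain sequence. Clusters outside 100-1000 RFU were left out.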
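Also: ATP exposure 15 min at 22 °C before imaging.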

| Sequence | switch fluorescence ratio |
| --- | --- |
| GGTTGATGAT | 0.975 ± 0.033 |
| GGTTGATGTT | 0.969 ± 0.059 |
| GGTTGATTAT | 0.9793 ± 0.0065 |
| GGTTGCACAG | 1.005 ± 0.0043 |
| GGTTGCAGTC | 0.946 ± 0.025 |
| GGTTGCGTTT | 0.9997 ± 0.001 |
| GGTTGCTCGT | 1.008 ± 0.0092 |
| GGTTGGAAGG | 0.9761 ± 0.0047 |
| GGTTGGATCG | 0.9987 ± 0.0047 |
| GGTTGGCAGG | 1 ± 0.038 |
| GGTTGGCGGG | 1.07 ± 0.021 |
| GGTTGGCGTT | 0.961 ± 0.03 |
| GGTTGGCTTT | 1.01 ± 0.069 |
| GGTTGGGACT | 0.994 ± 0.028 |
| GGTTGGGGAT | 0.979 ± 0.016 |
| GGTTGGGGTG | 1.01 ± 0.037 |
| GGTTGGTTGG | 0.9769 ± 0.0012 |
| GGTTGTCTCG | 0.951 ± 0.021 |
| GGTTGTGACG | 1 ± 0.08 |
| GGTTGTGTGT | 1 ± 0.005 |
| GGTTGTGTTT | 0.991 ± 0.003 |
| GGTTGTTGTT | 0.978 ± 0.029 |
| GGTTGTTTTT | 1.01 ± 0.032 |
| GGTTTAAGAA | 1.02 ± 0.023 |
| GGTTTACGTC | 0.9998 ± 0.0082 |

| Sequence | switch fluorescence ratio |
| --- | --- |
| GGTTTACTTC | 0.9967 ± 0.0016 |
| GGTTTAGGTT | 1.01 ± 0.029 |
| GGTTTAGTGA | 0.998 ± 0.034 |
| GGTTTATATT | 1.01 ± 0.05 |
| GGTTTATGAA | 0.999 ± 0.018 |
| GGTTTATTAA | 0.983 ± 0.011 |
| GGTTTCAGAT | 0.975 ± 0.016 |
| GGTTTCATAG | 0.976 ± 0.013 |
| GGTTTCGCGC | 1.01 ± 0.013 |
| GGTTTCGGAA | 1 ± 0.034 |
| GGTTTCGGGC | 1.03 ± 0.044 |
| GGTTTCGGGT | 0.984 ± 0.0011 |
| GGTTTCTCGT | 0.967 ± 0.04 |
| GGTTTCTGCT | 1.02 ± 0.03 |
| GGTTTGACTA | 0.9857 ± 0.0066 |
| GGTTTGGTAG | 0.9873 ± 0.0029 |
| GGTTTGTAAC | 0.978 ± 0.029 |
| GGTTTGTTAT | 1 ± 0.014 |
| GGTTTTCCGG | 1.01 ± 0.046 |
| GGTTTTCGGC | 0.9771 ± 0.0087 |
| GGTTTTCTCA | 1.002 ± 0.008 |
| GGTTTTGCTT | 0.96 ± 0.034 |
| GGTTTTGTAT | 0.993 ± 0.024 |
| GGTTTTTAAT | 0.985 ± 0.031 |
| GGTTTTTACG | 0.985 ± 0.061 |

| Sequence | switch fluorescence ratio |
| --- | --- |
| GGTTTTTGCG | 1.0217 ± 0.0008 |
| GGTTTTTTAG | 0.996 ± 0.021 |
| GGTTTTTTGC | 1.01 ± 0.04 |
| GTAAAAACTC | 1.03 ± 0.024 |
| GTAAACGGTA | 1.08 ± 0.064 |
| GTAAACGGTG | 0.979 ± 0.032 |
| GTAAATAGCT | 1.02 ± 0.073 |
| GTAAATAGGC | 0.993 ± 0.023 |
| GTAAATAGTC | 1.03 ± 0.065 |
| GTAAATGGGG | 0.975 ± 0.011 |
| GTAACAGGGT | 0.999 ± 0.023 |
| GTAACCCCGG | 1.07 ± 0.025 |
| GTAACGGCCG | 1.16 ± 0.18 |
| GTAACGGGGA | 0.995 ± 0.072 |
| GTAACGGGGC | 0.982 ± 0.049 |
| GTAACTAGAG | 0.997 ± 0.033 |
| GTAAGATTAT | 0.985 ± 0.067 |
| GTAAGGAGGT | 0.976 ± 0.023 |
| GTAAGTAAAA | 1.03 ± 0.089 |
| GTAAGTATGT | 1.01 ± 0.011 |
| GTAAGTGAAG | 1.05 ± 0.014 |
| GTAATAAGAG | 1.004 ± 0.0063 |
| GTAATAAGGT | 1.02 ± 0.023 |
| GTAATACCAA | 1.03 ± 0.058 |
| GTAATATTAA | 1.0073 ± 0.00065 |

| Sequence | switch fluorescence ratio |
| --- | --- |
| GTAATGAGCG | 0.998 ± 0.044 |
| GTAATGCTTA | 1.011 ± 0.005 |
| GTAATGGGGG | 1.09 ± 0.071 |
| GTAATTCGGG | 0.9809 ± 0.0073 |
| GTAATTGCGG | 0.9765 ± 0.0056 |
| GTAATTTGGG | 0.982 ± 0.019 |
| GTAATTTTTC | 1.01 ± 0.053 |
| GTACGGGAAG | 1.19 ± 0.1 |
| GTACTCGGGG | 0.9991 ± 0.0074 |
| GTAGAAAGTT | 0.984 ± 0.0028 |
| GTAGAGAACT | 1 ± 0.021 |
| GTAGCTCCTG | 0.995 ± 0.056 |
| GTAGGAATGT | 1.03 ± 0.036 |
| GTAGGACCTA | 1.01 ± 0.018 |
| GTAGGCAAAT | 1.029 ± 0.003 |
| GTAGGCAAGA | 1.03 ± 0.071 |
| GTAGGGAGGG | 0.987 ± 0.013 |
| GTAGGGCATG | 0.96 ± 0.026 |
| GTAGGGGCCC | 1.02 ± 0.032 |
| GTAGGGGGCG | 1.01 ± 0.017 |
| GTAGGGGGGA | 0.987 ± 0.04 |
| GTAGGGTGCT | 1.042 ± 0.0064 |
| GTAGTACAAG | 0.986 ± 0.026 |
| GTAGTAGGGA | 1.01 ± 0.025 |
| GTAGTAGGGT | 1.01 ± 0.035 |

| Sequence | switch fluorescence ratio |
| --- | --- |
| GTAGTCACGA | 1.01 ± 0.048 |
| GTAGTGAGGA | 1.02 ± 0.029 |
| GTAGTGAGGG | 0.982 ± 0.037 |
| GTAGTGCCAG | 1.02 ± 0.042 |
| GTAGTTTTGA | 0.981 ± 0.018 |
| GTATAAGAGG | 0.991 ± 0.019 |
| GTATAAGGAT | 1.03 ± 0.019 |
| GTATACGCAG | 1.02 ± 0.026 |
| GTATACGGCA | 1.01 ± 0.022 |
| GTATAGGGAA | 1.004 ± 0.0071 |
| GTATCCCCCG | 1.03 ± 0.041 |
| GTATCCCGTG | 0.977 ± 0.018 |
| GTATCGAGGA | 0.963 ± 0.047 |
| GTATCTGATG | 1.004 ± 0.0027 |
| GTATGACGTA | 0.968 ± 0.037 |
| GTATGAGTTG | 1.02 ± 0.027 |
| GTATGCGGAG | 0.996 ± 0.02 |
| GTATGCGGGG | 0.996 ± 0.02 |
| GTATGCTAGC | 1.004 ± 0.0086 |
| GTATGGATGT | 1.007 ± 0.0043 |
| GTATGGCAGG | 1.01 ± 0.018 |
| GTATGGGCGT | 1.03 ± 0.018 |
| GTATGTAGTA | 0.985 ± 0.0098 |
| GTATGTCGAG | 0.988 ± 0.014 |
| GTATGTCGTT | 0.968 ± 0.034 |

| Sequence | switch fluorescence ratio |
| --- | --- |
| GTATGTGTGC | 0.96 ± 0.03 |
| GTATTAAGGG | 1.02 ± 0.035 |
| GTATTAGCAG | 1.03 ± 0.026 |
| GTATTCAAGA | 1 ± 0.043 |
| GTATTCGCAA | 4.73 ± 0.9 |
| GTATTCGGGA | 0.963 ± 0.029 |
| GTATTGAGAT | 0.973 ± 0.063 |
| GTATTGATTT | 0.9769 ± 0.0055 |
| GTATTGGGCT | 0.98036 ± 0.00097 |
| GTATTTAAAT | 0.9855 ± 0.0018 |
| GTATTTACTC | 1.04 ± 0.034 |
| GTATTTCGGT | 0.972 ± 0.031 |
| GTATTTTCGC | 1.02 ± 0.017 |
| GTATTTTGCT | 0.979 ± 0.031 |
| GTCAAAAAGT | 0.985 ± 0.028 |
| GTCAAAAATT | 0.987 ± 0.01 |
| GTCAAAGCCA | 1.02 ± 0.019 |
| GTCAACTGAG | 1.05 ± 0.04 |
| GTCAATTGCA | 0.999 ± 0.026 |
| GTCACGTATT | 1.16 ± 0.0099 |
| GTCACTAGTG | 1.028 ± 0.0026 |
| GTCAGAGTCT | 1.05 ± 0.021 |
| GTCAGAGTGG | 0.991 ± 0.024 |
| GTCAGCCTTT | 0.983 ± 0.025 |
| GTCAGCTAAC | 1.48 ± 0.053 |

| Sequence | switch fluorescence ratio |
| --- | --- |
| GTCAGCTTGC | 1 ± 0.025 |
| GTCAGGAATT | 0.9981 ± 0.0062 |
| GTCAGTGCTA | 1.0169 ± 0.001 |
| GTCAGTGGCT | 0.998 ± 0.018 |
| GTCAGTGGGC | 0.998 ± 0.0052 |
| GTCATAACAT | 1.018 ± 0.0065 |
| GTCATAGGTG | 1.28 ± 0.087 |
| GTCATTGGAG | 1.008 ± 0.0079 |
| GTCCTTGGTC | 0.982 ± 0.019 |
| GTCGAGGGGG | 0.997 ± 0.05 |
| GTCGATTAGT | 0.944 ± 0.033 |
| GTCGATTGGG | 1.001 ± 0.0012 |
| GTCGGACTAG | 1 ± 0.051 |
| GTCGGAGTCA | 1 ± 0.034 |
| GTCGGCGTAG | 1.03 ± 0.036 |
| GTCGGCGTTG | 0.9916 ± 0.0027 |
| GTCGGGAGCC | 0.967 ± 0.018 |
| GTCGGGCCAG | 0.985 ± 0.025 |
| GTCGGGGAAG | 0.958 ± 0.013 |
| GTCGGGGGG | 1.01 ± 0.026 |
| GTCGGGGGTA | 0.992 ± 0.039 |
| GTCGTATTGG | 1.03 ± 0.03 |
| GTCGTATTTG | 0.9822 ± 0.0057 |
| GTCGTCCGGG | 0.986 ± 0.028 |
| GTCGTCTTAC | 1.05 ± 0.045 |

| Sequence | switch fluorescence ratio |
| --- | --- |
| GTCGTGGCGA | 1.01 ± 0.02 |
| GTCGTGGTTT | 0.982 ± 0.037 |
| GTCGTTAGGG | 0.963 ± 0.051 |
| GTCGTTGTTC | 1.03 ± 0.027 |
| GTCGTTTGCG | 1.012 ± 0.0048 |
| GTCGTTTTGG | 0.99 ± 0.029 |
| GTCTAACTGT | 0.994 ± 0.029 |
| GTCTAAGGAT | 0.995 ± 0.042 |
| GTCTATATTT | 1 ± 0.044 |
| GTCTGAACGG | 0.9762 ± 0.0081 |
| GTCTGTTATT | 1.01 ± 0.035 |
| GTCTTAACGA | 0.981 ± 0.015 |
| GTCTTGGGGG | 1 ± 0.023 |
| GTGAAAATTT | 1.07 ± 0.083 |
| GTGAAACGGG | 0.998 ± 0.07 |
| GTGAAAGCGT | 0.961 ± 0.016 |
| GTGAAAGTCG | 0.9929 ± 0.0024 |
| GTGAACAGCA | 1.01 ± 0.025 |
| GTGAAGATTG | 1.02 ± 0.032 |
| GTGAATAGGG | 0.989 ± 0.028 |
| GTGAATGTAT | 1.02 ± 0.021 |
| GTGAATTTGT | 1.09 ± 0.15 |
| GTGACATTAA | 0.998 ± 0.03 |
| GTGACCGGCG | 1.03 ± 0.053 |
| GTGACTATGG | 0.96325 ± 0.00082 |
